Laboratory results from patent publication US20220089735A1 (SUZHOU KANOVA BIOPHARMACEUTICAL, published 2022).

T1: human B7S1 (NCBI Reference Sequence: NP_078902.2) expressed on a cell surface (human, UniProt Q7Z7D3 25-282)
T1 construct: whole, on cells; the assay field says which cells were used; also called B7S1 overexpressed on cell surface; B7S1 transfected BaF3 cell line
T1 sequence (looked up): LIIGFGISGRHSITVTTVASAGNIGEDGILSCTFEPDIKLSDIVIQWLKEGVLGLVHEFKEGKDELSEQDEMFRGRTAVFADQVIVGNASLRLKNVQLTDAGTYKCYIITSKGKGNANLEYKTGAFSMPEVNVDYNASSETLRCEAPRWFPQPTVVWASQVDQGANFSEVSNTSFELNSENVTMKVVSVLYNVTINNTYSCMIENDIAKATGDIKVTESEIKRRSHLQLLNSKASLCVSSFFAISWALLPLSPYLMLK

T2: human B7S1-his (Sinobiological, cat#10738-H08H-100) (human, UniProt Q7Z7D3 25-259)
T2 construct: extracellular domain; Bought protein; also called human B7S1 extracellular domain; B7-H4; not shown: His tag
T2 sequence (looked up): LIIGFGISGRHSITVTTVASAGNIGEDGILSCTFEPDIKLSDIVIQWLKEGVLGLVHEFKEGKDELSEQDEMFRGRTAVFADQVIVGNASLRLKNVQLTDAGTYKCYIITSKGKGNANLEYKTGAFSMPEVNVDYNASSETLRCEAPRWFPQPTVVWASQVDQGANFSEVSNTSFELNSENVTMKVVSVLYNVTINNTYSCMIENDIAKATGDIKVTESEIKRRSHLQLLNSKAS

T3: mouse B7S1-his (R&D system, cat#4206-B7-100) (mouse, UniProt Q7TSP5 29-256)
T3 construct: Bought protein; not shown: His tag
T3 sequence (looked up): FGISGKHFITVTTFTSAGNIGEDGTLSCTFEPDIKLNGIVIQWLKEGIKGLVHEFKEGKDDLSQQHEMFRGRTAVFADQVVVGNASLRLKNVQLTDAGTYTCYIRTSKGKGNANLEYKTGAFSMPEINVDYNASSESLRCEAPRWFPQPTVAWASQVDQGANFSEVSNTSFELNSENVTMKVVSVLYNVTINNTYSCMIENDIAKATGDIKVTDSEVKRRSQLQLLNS


Assays:
[1] = target: T1, human B7S1 (NCBI Reference Sequence: …); assay: flow cytometry on LPS-stimulated human PBMCs (percentage of live PBMC stained), detection with Alexa Fluor 594 goat anti-human IgG
Procedure: (§1) Peripheral blood mononuclear cells (PBMCs) contain monocytes which under stimulation would up-regulate B7S1 expression on cell surface. This example is to evaluate humanized anti-B7S1 antibody binding affinity on monocytes. Human buffy coat was diluted with PBS to according volume as twice as Ficoll (GE, 17-1440-02). The diluted buffy coat was layered gently on top of Ficoll and centrifuged at 2500 rpm for 40 min at 20° C. without brake. Carefully draw off PBMCs layer in between Ficoll and its transparent supernatant. PBS was added to 5 volumes of PBMCs and centrifuged at 1200 rpm for 10 min at 20° C. Discard supernatant and wash with PBS again. To eliminate platelets, centrifuge at 900 rpm for 8 min at 20° C. PBMCs were resuspended with culture medium (RPMI-1640 with 10% FBS and 1% PS), counted and aliquot to 96-well plate (5×10\hat{ }5 cells/well) with LPS added (100 ng/ml). After 24h incubation, cells were washed with PBS twice. For live/dead stain, LIVE/DEAD® Fixable Aqua Dead Cell Stain Kit (Life technologies, L34957) was applied (1:1000 in PBS, 100 ul/well) to cells, and incubated at 4° C. for 10 min FACS buffer (2% FBS in PBS, 100 ul/well) was added to each well to terminate staining. Centrifuge (1200 rpm, 5 min) to discard supernatant and wash with FACS buffer once. Humanized anti-B7S1 antibodies were diluted in FACS buffer to according concentrations and added to each well (100 ul/well). Cells were incubated at 4° C. for 30 min, and then, washed twice with FACS buffer. […] Cells were incubated at 4° C. for 30 min, and then, washed twice with FACS buffer. Cells were tested on flow cytometry. […] The mAbs meet the requirements for binding profile of antibody drugs.

[2] = target: T1, human B7S1 (NCBI Reference Sequence: …); assay: flow cytometry (mean fluorescence intensity) on BaF3 cells expressing human B7S1, detection with Alexa Fluor 594 goat anti-human IgG
Procedure: To evaluate anti-B7S1 antibody binding affinity on cell surface over expressing B7S1, human B7S1 (NCBI Reference Sequence: NP_078902.2) was constructed on BaF3 cell line. The cells were washed with PBS and aliquot to 96-well U-bottom plate with a cell density of 5×10\hat{ }5 cells/well. For live/dead stain, LIVE/DEAD® Fixable Aqua Dead Cell Stain Kit (Life technologies, L34957) was applied (1:1000 in PBS, 100 ul/well) to cells, and incubated at 4° C. for 10 min FACS buffer (2% FBS in PBS, 100 ul/well) was added to each well to terminate staining. Centrifuge (1200 rpm, 5 min) to discard supernatant and wash with FACS buffer once. Humanized anti-B7S1 antibodies were diluted in FACS buffer to according concentrations and added to each well (100 ul/well). Cells were incubated at 4° C. for 30 min, and then, washed twice with FACS buffer. […] Cells were incubated at 4° C. for 30 min, and then, washed twice with FACS buffer. […] For example, the binding EC₅₀ of the tested mAbs is in the sub nM range.

[3] = target: T2, human B7S1-his (Sinobiological, …); assay: SPR, Biacore 8K, antibody captured by Fc, B7S1 as analyte
Procedure: FIG. 1. Experimental results of Surface Plasmon Resonance (SPR) binding analysis using Biacore 8K. The data of dissociation (kd) and association (ka) rate constants were obtained using Biacore 8K evaluation software. The equilibrium dissociation constants (KD) were calculated from the ratio of kd over ka.
In addition, the affinity of the above mAbs was further analyzed by Surface Plasmon Resonance (SPR) binding analysis using Biacore 8K. SPR is the resonant oscillation of conduction electrons at the interface between negative and positive permittivity material stimulated by incident light. Antibodies were immobilized on the sensor chip through Fc capture method. Human B7S1 (Sinobiological, cat#10738-H08H-100) was used as the analyte. The data of dissociation (kd) and association (ka) rate constants were obtained using Biacore 8K evaluation software. The equilibrium dissociation constants (KD) were calculated from the ratio of kd over ka.

[4] = target: T1, human B7S1 (NCBI Reference Sequence: …); assay: flow cytometry, LPS-stimulated human PBMCs
Procedure: as §1

[5] = target: T4, cynomolgus B7S1 extracellular domain (Leu25-Ser259, NCBI Reference Sequence: XP_005542249.1) (cynomolgus monkey); assay: ELISA, antigen coated on plate
T4 construct: range 25-259; No tag or fusion partner is stated; also called cynomolgus monkey B7S1
Procedure: (§2) In order to test humanized anti-B7S1 antibody binding affinity, an ELISA analysis was carried out. 2 μg/ml of human B7S1-his (Sinobiological, cat#10738-H08H-100), mouse B7S1-his (R&D system, cat#4206-B7-100), and cynomolgus B7S1 extracellular domain (Leu25-Ser259, NCBI Reference Sequence: XP_005542249.1) were coated on MaxiSorp 96-well plates (NUNC, 449824) in 0.5M carbonate/bicarbonate buffer, pH9.6, incubated at 4° C. over night. Coated plates were blocked with skimmed milk (5%, in PBST) for 1h. Humanized anti-B7S1 antibodies were diluted and added to the plates, and incubated for 2h at room temperature. Washed three times with PBST (lx PBS with 0.05% tween-20) to eliminate un-bounded antibodies. Goat anti-Human IgG-HRP (Easybio, BE0122, 1:5000 in PBS) was added and incubated for 1h. Washed three times with PBST (lx PBS with 0.05% tween-20) to eliminate un-bounded antibodies. TMB (eBioscience, 00-4201-56) was added (50 ul/well) for color rendering and stopped by 2N H₂SO₄ (50 ul/well). Optical density was measured at 450 nm and 570 nm.

[6] = target: T2, human B7S1-his (Sinobiological, …); assay: ELISA, antigen coated on plate
Procedure: as §2

[7] = target: T3, mouse B7S1-his (R&D system, …); assay: ELISA, antigen coated on plate
Procedure: as §2

Binder	EC50 [1] [nM]	EC50 [2] [nM]	Kd [3] [nM]	koff [3] [s⁻¹]	kon [3] [M⁻¹ s⁻¹]	EC50 [4] [nM]	EC50 [5] [nM]	EC50 [6] [nM]	EC50 [7] [nM]
humanized anti-B7S1 antibody VH1-5/VL4-5 (antibody, V domains shown, Tested as a whole antibody with a human Fc (detected with anti-human IgG, Fc capture in SPR)) VH: QVQLVQSGAEVKKPGASVKVSCKASGYTFTSYWMHWVKQAPGQGLEWIAAIYPGNSDTDYNQKFKGKAKITAVTSTSTAYMELSSLRSEDTAVYYCTTTVAHYFDYWGQGTMVTVSS VL: EIVMTQSPATLSLSPGERATLTCKASQDVSFAVAWYQQKPGQAPKLLISSASYRYTGVPDRFSGSGSGTDFTLTISSLEPEDFAVYYCQQHYNTPLTFGGGTKVEIK	2.6	3.8	3.24	0.000265	81700	< 3	8.09	0.52	1.09
humanized anti-B7S1 antibody VH1-4/VL4-5 (antibody, V domains shown, Tested as a whole antibody with a human Fc (detected with anti-human IgG, Fc capture in SPR)) VH: QVQLVQSGAEVKKPGASVKVSCKASGYTFTSYWMHWVRQAPGQGLEWIAAIYPGNSDTDYNQKFKGKAKITAVTSTSTVYMELSSLRSEDTAVYYCTTTVAHYFDYWGQGTMVTVSS VL: EIVMTQSPATLSLSPGERATLTCKASQDVSFAVAWYQQKPGQAPKLLISSASYRYTGVPDRFSGSGSGTDFTLTISSLEPEDFAVYYCQQHYNTPLTFGGGTKVEIK	2.4	4.2	4.08	0.000436	107000	< 3	7.82	0.25	1.59
humanized anti-B7S1 antibody VH1-5/VL4-4 (antibody, V domains shown, Tested as a whole antibody with a human Fc (detected with anti-human IgG, Fc capture in SPR)) VH: QVQLVQSGAEVKKPGASVKVSCKASGYTFTSYWMHWVKQAPGQGLEWIAAIYPGNSDTDYNQKFKGKAKITAVTSTSTAYMELSSLRSEDTAVYYCTTTVAHYFDYWGQGTMVTVSS VL: EIVLTQSPATLSLSPGERATLSCKASQDVSFAVAWYQQKPGQAPRLLISSASYRYTGVPDRFSGSGSGTDFTLTISSLEPEDFAVYYCQQHYNTPLTFGGGTKVEIK	3	3.1	1.86	0.000187	101000	< 3	3.26	0.4	0.88
